The results in this text go back to IntAct's records for PubMed 11113154.

For experiment [1], the target named is bem1_yeast BEM1 (UniProt P29366).
Experiment [2] shares this target. The source holds these as a separate data set.

Sequence of bem1_yeast BEM1 (P29366 whole entry): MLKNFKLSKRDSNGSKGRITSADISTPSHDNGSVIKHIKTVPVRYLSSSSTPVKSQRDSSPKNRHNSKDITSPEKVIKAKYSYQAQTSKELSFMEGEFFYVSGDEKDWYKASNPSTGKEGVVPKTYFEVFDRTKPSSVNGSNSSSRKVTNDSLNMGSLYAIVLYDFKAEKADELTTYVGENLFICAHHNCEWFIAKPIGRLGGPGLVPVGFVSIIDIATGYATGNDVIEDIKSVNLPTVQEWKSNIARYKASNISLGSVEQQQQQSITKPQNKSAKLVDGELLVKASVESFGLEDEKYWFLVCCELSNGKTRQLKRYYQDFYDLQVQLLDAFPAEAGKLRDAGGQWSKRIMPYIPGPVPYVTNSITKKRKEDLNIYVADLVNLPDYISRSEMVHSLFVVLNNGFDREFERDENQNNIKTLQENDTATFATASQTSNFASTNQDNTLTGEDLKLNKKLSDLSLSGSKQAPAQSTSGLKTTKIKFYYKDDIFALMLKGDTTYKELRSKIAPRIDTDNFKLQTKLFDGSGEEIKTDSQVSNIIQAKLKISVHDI
Sequence of Cell division control protein 42 (Saccharomyces cerevisiae), P19073 D57Y (P19073 whole entry D57Y): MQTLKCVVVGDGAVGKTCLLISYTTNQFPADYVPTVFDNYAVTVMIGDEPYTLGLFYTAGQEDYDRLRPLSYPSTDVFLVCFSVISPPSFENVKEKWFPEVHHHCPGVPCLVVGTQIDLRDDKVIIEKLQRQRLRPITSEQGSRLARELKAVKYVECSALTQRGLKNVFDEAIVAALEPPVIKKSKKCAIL
Sequence of Cell division control protein 42 (Saccharomyces cerevisiae), P19073 Q61L (P19073 whole entry Q61L): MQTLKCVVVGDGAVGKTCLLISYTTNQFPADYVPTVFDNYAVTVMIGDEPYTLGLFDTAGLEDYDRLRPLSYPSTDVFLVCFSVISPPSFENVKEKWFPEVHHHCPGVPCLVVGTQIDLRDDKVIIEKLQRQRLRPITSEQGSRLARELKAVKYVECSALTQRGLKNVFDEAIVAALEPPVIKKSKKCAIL

In the case of “Cell division control protein 42 (Saccharomyces cerevisiae), P19073 Q61L”, the “effect of a mutation on the interaction” value with bem1_yeast BEM1 [1] was “with no effect”. With “Cell division control protein 42 (Saccharomyces cerevisiae), P19073 D57Y”, in the experiment with bem1_yeast BEM1 [2], the “effect of a mutation on the interaction” value is given as “disrupting interaction strength”.
